Experimental data from patent US20080171038A1 (KALOBIOS PHARMACEUTICALS, published 2008).

Tests used:
Recombinant human GM-CSF [1] = molecular target: T1, Recombinant human GM-CSF (human, UniProt P04141 18-144, biotinylated for the SPR assay (sites not given)); assay: surface plasmon resonance analysis, monovalent affinity; format not described
T1 construct: Biotinylated and immobilized on a streptavidin CM5 sensor chip in the SPR assay; used in solution at 0.5 ng/ml in the TF-1 proliferation assay (the species is not restated there); also called hGM-CSF; Granulocyte Macrophage-Colony Stimulating Factor
T1 sequence (P04141 18-144 limits assumed): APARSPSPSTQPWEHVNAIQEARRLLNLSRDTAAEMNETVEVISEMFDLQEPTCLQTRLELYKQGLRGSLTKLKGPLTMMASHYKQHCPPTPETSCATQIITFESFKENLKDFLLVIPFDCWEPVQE

Recombinant human GM-CSF [2] = molecular target: T1, Recombinant human GM-CSF; assay: cell-based or functional assay

B1: chimeric 19/2 antibody (antibody, V domains shown)
VH: EVQLQQSGPELVKPGASVKISCKASGYTFTDYNIHWVKQSHGKSLDWIGYIAPYSGGTGYNQEFKNRATLTVDKSSSTAYMELRSLTSDDSAVYYCARRDRFPYYFDYWGQGTTLRVSS
VL: DIVMIQSQKFVSTSVGDRVNITCKASQNVGSNVAWLQQKPGQSPKTLIYSASYRSGRVPDRFTGSGSGTDFILTITTVQSEDLAEYFCQQFNRSPLTFGSGTKLELK
Recombinant human GM-CSF [1]
  Kd: ~10 pM
Recombinant human GM-CSF [2]
  EC50 of inhibition of GM-CSF-dependent proliferation of a human TF-1 leukemia cell line (0.5 ng/ml GM-CSF): 30 pM
